Legend:
G-CSF = assay: Example 19 LNP formulations in mice, serum G-CSF ELISA; assay type: in vivo; conditions: for G-CSF Serum Concentration: mice IV (n=4); for G-CSF protein expression detectable at least out to: mice IV
Procedure: Formulations, listed in Table 31, were characterized by particle size, zeta potential, and encapsulation.
LNP formulations, shown in Table 31 (above), were administered to mice (n=4) intravenously (IV) at a single modified mRNA dose 0.05 mg/kg or 0.005 mg/kg. There was also 3 control groups of mice (n=4) that were untreated. The mice were bled at 2 hours, 8 hours, 24 hours, 48 hours and 72 hours after they were administered with G-CSF or EPO modified mRNA formulations to determine the protein expression. Protein expression of G-CSF and EPO were determined using ELISA.

human G-CSF = assay: Example 32B human G-CSF modified RNA lipoplex IM/SC/IV, serum human G-CSF ELISA; assay type: in vivo, C57/BL6 mice; conditions: I.M., 100 μg, lipoplexed with 30% RNAIMAX, serum 6 hours
Procedure: 6 hours after administration of a formulation, serum was collected from each mouse to measure the amount of human G-CSF protein in the mouse serum by human G-CSF ELISA and the results are shown in Table 54.

[1] = system: alanine transaminase (ALT); assay: Example 22 non-human primate study, serum chemistry alanine transaminase (ALT); assay type: in vivo, cynomolgus monkey
Procedure: (§1) LNP formulations, shown in Table 31 (above), were administered to non-human primates (NHP) (cynomolgus monkey) (n=2) as intravenous injection (IV). The NHP were administered a single modified mRNA IV dose of 0.5 mg/kg, 0.05 mg/kg or 0.005 mg/kg of G-CSF or EPO in a dose volume of 0.5 mL/kg. The NHPs were bled before dosing with the modified mRNA LNP formulations to determine protein expression in the serum and a baseline complete blood count. After administration with the G-CSF modified mRNA formulation the NHP were bled at 8, 24, 48 and 72 hours to determined protein expression. After administration with the EPO modified mRNA formulation the NHP were bled at 8, 24, 48, 72 hours and 7 days to determined protein expression.

reticulocytes = assay: Example 22 non-human primate study, reticulocyte count; assay type: in vivo, cynomolgus monkey; conditions: Table 39, Female NHP
Procedure: as §1
Samples collected from the NHPs after they were administered with G-CSF or EPO modified mRNA formulations were analyzed by ELISA to determine protein expression. Neutrophil and reticulocyte count was also determined pre-dose, 24 hours, 3 days, 7 days, 14 days and 18 days after administration of the modified G-CSF or EPO formulation.

B1: G-CSF: human G-CSF mRNA SEQ ID NO: 6, polyA ~160 nt, Cap1, fully modified with 5-methylcytosine and pseudouridine (nucleic acid, listed as Homo sapiens)
chain: GGGAAAUAAGAGAGAAAAGAAGAGUAAGAAGAAAUAUAAGAGCCACCAUGGCCGGUCCCGCGACCCAAAGCCCCAUGAAACUUAUGGCCCUGCAGUUGCUGCUUUGGCACUCGGCCCUCUGGACAGUCCAAGAAGCGACUCCUCUCGGACCUGCCUCAUCGUUGCCGCAGUCAUUCCUUUUGAAGUGUCUGGAGCAGGUGCGAAAGAUUCAGGGCGAUGGAGCCGCACUCCAAGAGAAGCUCUGCGCGACAUACAAACUUUGCCAUCCCGAGGAGCUCGUACUGCUCGGGCACAGCUUGGGGAUUCCCUGGGCUCCUCUCUCGUCCUGUCCGUCGCAGGCUUUGCAGUUGGCAGGGUGCCUUUCCCAGCUCCACUCCGGUUUGUUCUUGUAUCAGGGACUGCUGCAAGCCCUUGAGGGAAUCUCGCCAGAAUUGGGCCCGACGCUGGACACGUUGCAGCUCGACGUGGCGGAUUUCGCAACAACCAUCUGGCAGCAGAUGGAGGAACUGGGGAUGGCACCCGCGCUGCAGCCCACGCAGGGGGCAAUGCCGGCCUUUGCGUCCGCGUUUCAGCGCAGGGCGGGUGGAGUCCUCGUAGCGAGCCACCUUCAAUCAUUUUUGGAAGUCUCGUACCGGGUGCUGAGACAUCUUGCGCAGCCGUGAAGCGCUGCCUUCUGCGGGGCUUGCCUUCUGGCCAUGCCCUUCUUCUCUCCCUUGCACCUGUACCUCUUGGUCUUUGAAUAAAGCCUGAGUAGGAAG
modifications: polyA ~160, Cap1, 5mC/pseudouridine modified
G-CSF Serum Concentration (G-CSF; 0.005 mg/kg, 2 hours): 3,447.8 pg/ml
G-CSF Serum Concentration (G-CSF; 0.005 mg/kg, 8 hours): 11,454.0 pg/ml
G-CSF Serum Concentration (G-CSF; 0.005 mg/kg, 24 hours): 4,960.2 pg/ml
G-CSF Serum Concentration (G-CSF; 0.005 mg/kg, 48 hours): 686.4 pg/mL
G-CSF Serum Concentration (G-CSF; 0.05 mg/kg, 2 hours): 20,951.4 pg/ml
G-CSF Serum Concentration (G-CSF; 0.05 mg/kg, 8 hours): 70,012.8 pg/ml
G-CSF Serum Concentration (G-CSF; 0.05 mg/kg, 24 hours): 19,356.2 pg/ml
G-CSF Serum Concentration (G-CSF; 0.05 mg/kg, 48 hours): 1,963.0 pg/ml
G-CSF Serum Concentration (G-CSF; 0.05 mg/kg, 72 hours): 47.3 pg/mL
G-CSF protein expression detectable at least out to (G-CSF; 0.005 mg/kg): ≥ 48 h
G-CSF protein expression detectable at least out to (G-CSF; 0.05 mg/kg): ≥ 72 h
G-CSF (human G-CSF): 85.6 pg/mL
ALT ([1]; Female NHP, 0.005 mg/kg, 2 days): 32 U/L
ALT ([1]; Female NHP, 0.005 mg/kg, 4 days): 58 U/L
ALT ([1]; Female NHP, 0.005 mg/kg, 7 days): 55 U/L
ALT ([1]; Female NHP, 0.005 mg/kg, 14 days): 46 U/L
ALT ([1]; Female NHP, 0.005 mg/kg, Pre-dose): 51 U/L
ALT ([1]; Female NHP, 0.05 mg/kg, 2 days): 39 U/L
ALT ([1]; Female NHP, 0.05 mg/kg, 4 days): 56 U/L
ALT ([1]; Female NHP, 0.05 mg/kg, 7 days): 73 U/L
ALT ([1]; Female NHP, 0.05 mg/kg, 14 days): 31 U/L
ALT ([1]; Female NHP, 0.05 mg/kg, Pre-dose): 53 U/L
ALT ([1]; Female NHP, 0.5 mg/kg, 2 days): 209 U/L
ALT ([1]; Female NHP, 0.5 mg/kg, 4 days): 98 U/L
ALT ([1]; Female NHP, 0.5 mg/kg, 7 days): 149 U/L
ALT ([1]; Female NHP, 0.5 mg/kg, 14 days): 145 U/L
ALT ([1]; Female NHP, 0.5 mg/kg, Pre-dose): 216 U/L
ALT ([1]; Male NHP, 0.005 mg/kg, 2 days): 39 U/L
ALT ([1]; Male NHP, 0.005 mg/kg, 4 days): 48 U/L
ALT ([1]; Male NHP, 0.005 mg/kg, 7 days): 29 U/L
ALT ([1]; Male NHP, 0.005 mg/kg, 14 days): 44 U/L
ALT ([1]; Male NHP, 0.005 mg/kg, Pre-dose): 43 U/L
ALT ([1]; Male NHP, 0.05 mg/kg, 2 days): 82 U/L
ALT ([1]; Male NHP, 0.05 mg/kg, 4 days): 88 U/L
ALT ([1]; Male NHP, 0.05 mg/kg, 7 days): 73 U/L
ALT ([1]; Male NHP, 0.05 mg/kg, 14 days): 50 U/L
ALT ([1]; Male NHP, 0.05 mg/kg, Pre-dose): 58 U/L
ALT ([1]; Male NHP, 0.5 mg/kg, 2 days): 63 U/L
ALT ([1]; Male NHP, 0.5 mg/kg, 4 days): 70 U/L
ALT ([1]; Male NHP, 0.5 mg/kg, 7 days): 41 U/L
ALT ([1]; Male NHP, 0.5 mg/kg, 14 days): 43 U/L
ALT ([1]; Male NHP, 0.5 mg/kg, Pre-dose): 29 U/L
Reticulocyte count (reticulocytes; 0.005 mg/kg, 14/18 days): 0.057 10^12/L
Reticulocyte count (reticulocytes; 0.005 mg/kg, 24 hours): 0.07 10^12/L
Reticulocyte count (reticulocytes; 0.005 mg/kg, 3 days): 0.054 10^12/L
Reticulocyte count (reticulocytes; 0.005 mg/kg, 7 days): 0.066 10^12/L
Reticulocyte count (reticulocytes; 0.005 mg/kg, Pre-dose): 0.06 10^12/L
Reticulocyte count (reticulocytes; 0.05 mg/kg, 14/18 days): 0.06 10^12/L
Reticulocyte count (reticulocytes; 0.05 mg/kg, 24 hours): 0.046 10^12/L
Reticulocyte count (reticulocytes; 0.05 mg/kg, 3 days): 0.061 10^12/L
Reticulocyte count (reticulocytes; 0.05 mg/kg, 7 days): 0.094 10^12/L
Reticulocyte count (reticulocytes; 0.05 mg/kg, Pre-dose): 0.049 10^12/L
Reticulocyte count (reticulocytes; 0.5 mg/kg, 14/18 days): 0.071 10^12/L
Reticulocyte count (reticulocytes; 0.5 mg/kg, 24 hours): 0.046 10^12/L

— US20160193299A1, “MODIFIED NUCLEOSIDE, NUCLEOTIDE, AND NUCLEIC ACID COMPOSITIONS” (Moderna Therapeutics, Inc., priority 2011, published 2016)
